Data as given in paper PMC9251316, “Engineering the Active Site Pocket to Enhance the Catalytic Efficiency of a Novel Feruloyl Esterase Derived From Human Intestinal Bacteria Dorea formicigenerans” (Frontiers in Bioengineering and Biotechnology, 2022).
Where a chain is given by its changes, count along the chain named. Numbers in names are those of the source.

B1: DfFAE (Dorea formicigenerans; N156A) (protein)
chain: MNQKKECMDVHVNGLKFHVQTFGSGVPIIMIMGLGAPGDKWKHNYELLSKWFWCIVPDNRGAGLSDKPEAESYTTEQMADDIIGIMDALDIKKAHVMGVSMGGAIAQQVALKVPDRVLSLILTSTFASVSPAFKKALNLICELKEDTDPAVLKQLALWMTYGQYTQIHHPEKIEKSIEEDAAYPYPMPVYAYKAQCGACLSHNTAGRLHELKMPVLIAAGAKDLFMNIEKTMELVHGIPQAEFYLAPEGGHVHQWEYPEPYDSVVVGFLMKHTN
notes: E. coli T7; trimeric by SEC (117 kDa)
B2: DfFAE (Dorea formicigenerans) (protein)
chain: B1 chain with A156N
notes: as for B1
B3: DfFAE (Dorea formicigenerans; P186A) (protein)
chain: B1 chain with A156N, P186A
notes: as for B1
B4: DfFAE (Dorea formicigenerans; V252A) (protein)
chain: B1 chain with A156N, V252A
notes: as for B1
B5: DfFAE (Dorea formicigenerans; W255A) (protein)
chain: B1 chain with A156N, W255A
notes: as for B1
B6: DfFAE (Dorea formicigenerans; P149A) (protein)
chain: B1 chain with P149A, A156N
notes: as for B1

These molecules were tested against feruloyl esterase from Dorea formicigenerans (DfFAE) (Dorea formicigenerans) (assay: SEC; Superdex 200 Increase 10/300 GL; elution volume 12.9 ml; mass markers conalbumin 75 kDa and aldolase 158 kDa; apparent MW about 117 kDa). Conditions: not given.

Row | stoichiometry N | Molecule
1 | 3 | feruloyl esterase from Dorea formicigenerans (DfFAE) (enzyme)

The molecules below were run on CC(=O)Oc1ccc([N+](=O)[O-])cc1 (assay: purified protein). Conditions: 10 mM Tris-HCl pH 8.4, 2.5% Triton X-100, 40 °C.
Assay type: biochemical, Dorea formicigenerans

Row | Molecule | Km | kcat | kcat/Km
2 | B1 | 644.7 ± 40.59 µM | 14.8 ± 0.333 s⁻¹ | 22940 ± 85.5 M⁻¹ s⁻¹
3 | B2 | 572 ± 56.57 µM | 4.42 ± 0.165 s⁻¹ | 7730 ± 136 M⁻¹ s⁻¹
4 | B3 | 824 ± 242.1 µM | 11.3 ± 1.21 s⁻¹ | 13700 ± 400 M⁻¹ s⁻¹
5 | B4 | 288.9 ± 53.8 µM | 12.8 ± 0.51 s⁻¹ | 44130 ± 226 M⁻¹ s⁻¹
6 | B5 | 809.7 ± 182.4 µM | 12.1 ± 0.891 s⁻¹ | 14900 ± 299 M⁻¹ s⁻¹
7 | B6 | 803.7 ± 107.8 µM | 17.4 ± 0.809 s⁻¹ | 21690 ± 181 M⁻¹ s⁻¹

These molecules were tested on CCCCCCCC(=O)Oc1ccc([N+](=O)[O-])cc1 (assay: purified protein). Conditions: 10 mM Tris-HCl pH 8.4, 2.5% Triton X-100, 40 °C.
Assay type: biochemical, Dorea formicigenerans

Row | Molecule | Km | kcat | kcat/Km
8 | B2 | 526.2 ± 73.57 µM | 0.186 ± 0.00865 s⁻¹ | 354 ± 186 M⁻¹ s⁻¹
9 | B4 | 99.87 ± 18.76 µM | 0.52 ± 0.018 s⁻¹ | 5200 ± 222 M⁻¹ s⁻¹
10 | B5 | 178.2 ± 13.66 µM | 2.87 ± 0.0543 s⁻¹ | 16100 ± 95.6 M⁻¹ s⁻¹
11 | B6 | 428.8 ± 35.31 µM | 1.08 ± 0.0243 s⁻¹ | 2510 ± 105 M⁻¹ s⁻¹

These molecules were tested on CCCC(=O)Oc1ccc([N+](=O)[O-])cc1 (assay: purified protein). Conditions: 10 mM Tris-HCl pH 8.4, 2.5% Triton X-100, 40 °C.
Assay type: biochemical, Dorea formicigenerans

Row | Molecule | Km | kcat | kcat/Km
12 | B1 | 334.3 ± 43.69 µM | 2.85 ± 0.0997 s⁻¹ | 8520 ± 166 M⁻¹ s⁻¹
13 | B2 | 357.3 ± 68.62 µM | 0.798 ± 0.0436 s⁻¹ | 2230 ± 247 M⁻¹ s⁻¹
14 | B4 | 83.61 ± 8.65 µM | 1.07 ± 0.0216 s⁻¹ | 12830 ± 124 M⁻¹ s⁻¹
